Target: human SIRPα-isoform 2-his protein (human)
Assay: indirect ELISA on coated human SIRPα-isoform 2-his, OD(450-630); negative control, curve not visible in the scan

Chain of human SIRPα-isoform 2-his protein (human) (chain, as listed by the source limits assumed): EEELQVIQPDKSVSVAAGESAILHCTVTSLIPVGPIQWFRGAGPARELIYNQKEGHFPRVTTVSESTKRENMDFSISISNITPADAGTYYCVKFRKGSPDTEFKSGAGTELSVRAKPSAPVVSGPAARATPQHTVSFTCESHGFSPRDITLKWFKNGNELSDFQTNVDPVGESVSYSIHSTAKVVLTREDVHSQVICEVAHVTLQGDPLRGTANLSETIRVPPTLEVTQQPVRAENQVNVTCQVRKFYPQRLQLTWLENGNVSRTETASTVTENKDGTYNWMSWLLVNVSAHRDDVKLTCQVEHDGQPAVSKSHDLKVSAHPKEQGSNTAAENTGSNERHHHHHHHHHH

EC50: 18.8 nM
Substance: hIgG (antibody)

Source: patent US20250250355A1
